Results published in patent publication US20240192215A1 (E AND S HEALTHCARE, published 2024).
Blank lines part the entries; values can stand above or below the binder they belong to.

How the values were obtained:
Peptide_067 = molecular target: T1, Peptide_067; test: peptide microarray, anti-mouse IgG DyLight 650, MMC2 heatmap (Example 17)
T1 peptide: SNVIFLEVDVDDCQD
Description: (§1) 5, 1, 0.2, 0.04, 0.008 and 0.0016 μg/mL serial dilutions were incubated on a single multi-well microarray slide at 30° C. for 1 hour. The slide includes 21 individual mini-arrays (one mini-array per sample dilution).
(§2) DyLight 650 was used as a label. False-positive binding to a peptide was evaluated by performing one additional control incubation in which only a secondary antibody was applied on the same microarray slide. Before performing each step, the microarrays were washed with a washing buffer.
(§3) To visualize the obtained results and compare binding regions across individual cultures, as shown in FIGS. 21A to 21D, heatmap diagrams were calculated. In FIGS. 21A to 21D, the fluorescence intensity is expressed in a color-coded manner, white indicates no binding, and red indicates strong binding. For all evaluations, the MMC2-value of the average pixel fluorescence for each peptide was calculated.

Peptide_103 = molecular target: T2, Peptide_103; test: as above
T2 peptide: VGEFSGANKEKLEAT
Description: as §1, §2, §3

Peptide_071 = molecular target: T3, Peptide_071; test: as above
T3 construct: also called FLEVDVDDCQDVASE
T3 peptide: FLEVDVDDCQDVASE
Description: as §1, §2, §3

Peptide_032 = molecular target: T4, Peptide_032; test: as above
T4 peptide: LDAAGDKLVVVDFSA
Description: as §1, §2, §3

Peptide_038 = molecular target: T5, Peptide_038; test: as above
T5 peptide: KLVVVDFSATWCGPC
Description: as §1, §2, §3

Peptide_063 = molecular target: T6, Peptide_063; test: as above
T6 peptide: SEKYSNVIFLEVDVD
Description: as §1, §2, §3

Peptide_027 = molecular target: T7, Peptide_027; test: as above
T7 peptide: AFQEALDAAGDKLVV
Description: as §1, §2, §3

Peptide_080 = molecular target: T8, Peptide_080; test: as above
T8 peptide: QDVASECEVKCMPTF
Description: as §1, §2, §3

Peptide_074 = molecular target: T9, Peptide_074; test: as above
T9 peptide: VDVDDCQDVASECEV
Description: as §1, §2, §3

Peptide_003 = molecular target: T10, Peptide_003; test: as above
T10 peptide: TAADVHSQHHHHHHH
Description: as §1, §2, §3

Peptide_087 = molecular target: T11, Peptide_087; test: as above
T11 peptide: EVKCMPTFQFFKKGQ
Description: as §1, §2, §3

Peptide_009 = molecular target: T12, Peptide_009; test: as above
T12 peptide: SQHHHHHHHHVKQIE
Description: as §1, §2, §3

Peptide_030 = molecular target: T13, Peptide_030; test: as above
T13 peptide: EALDAAGDKLVVVDF
Description: as §1, §2, §3

Peptide_100 = molecular target: T14, Peptide_100; test: as above
T14 peptide: GQKVGEFSGANKEKL
Description: as §1, §2, §3

Peptide_039 = molecular target: T15, Peptide_039; test: as above
T15 peptide: LVVVDFSATWCGPCK
Description: as §1, §2, §3

Peptide_081 = molecular target: T16, Peptide_081; test: as above
T16 peptide: DVASECEVKCMPTFQ
Description: as §1, §2, §3

Peptide_082 = molecular target: T17, Peptide_082; test: as above
T17 peptide: VASECEVKCMPTFQF
Description: as §1, §2, §3

Peptide_065 = molecular target: T18, Peptide_065; test: as above
T18 peptide: KYSNVIFLEVDVDDC
Description: as §1, §2, §3

Peptide_004 [1] = molecular target: T19, Peptide_004 (human); test: as above
T19 construct: 15-mer on microarray; not native form, recombinant insert region
T19 peptide: AADVHSQHHHHHHHH
Description: as §1, §2, §3

Peptide_007 = molecular target: T20, Peptide_007; test: as above
T20 peptide: VHSQHHHHHHHHVKQ
Description: as §1, §2, §3

Peptide_043 = molecular target: T21, Peptide_043; test: as above
T21 peptide: DFSATWCGPCKMIKP
Description: as §1, §2, §3

Peptide_036 = molecular target: T22, Peptide_036; test: as above
T22 peptide: GDKLVVVDFSATWCG
Description: as §1, §2, §3

Peptide_086 = molecular target: T23, Peptide_086 (human); test: peptide microarray, 0.04 ug/mL
T23 construct: 15-mer of hTrx1 on microarray
T23 peptide: CEVKCMPTFQFFKKG
Description: as §1, §2

Peptide_095 = molecular target: T24, Peptide_095 (human); test: peptide microarray, 0.04 ug/mL
T24 construct: 15-mer of hTrx1 on microarray
T24 peptide: QFFKKGQKVGEFSGA
Description: as §1, §2

Peptide_094 = molecular target: T25, Peptide_094 (human); test: peptide microarray, 0.04 ug/mL
T25 construct: 15-mer of hTrx1 on microarray
T25 peptide: FQFFKKGQKVGEFSG
Description: as §1, §2

Peptide_025 = molecular target: T26, Peptide_025 (human); test: peptide microarray, 0.04 ug/mL
T26 construct: 15-mer of hTrx1 on microarray
T26 peptide: KTAFQEALDAAGDKL
Description: as §1, §2

Peptide_012 = molecular target: T27, Peptide_012 (human); test: peptide microarray, 0.04 ug/mL
T27 construct: 15-mer on microarray; not native form, includes recombinant insert region
T27 peptide: HHHHHHHVKQIESKT
Description: as §1, §2

Peptide_014 = molecular target: T28, Peptide_014 (human); test: peptide microarray, 0.04 ug/mL
T28 construct: 15-mer on microarray; not native form, includes recombinant insert region
T28 peptide: HHHHHVKQIESKTAF
Description: as §1, §2

Peptide_004 [2] = molecular target: T19, Peptide_004; test: peptide microarray, 0.04 ug/mL
Description: as §1, §2

binding result (Peptide_067): no binding (tested: 5 ug/mL)
binding result (Peptide_103): no binding (tested: 5 ug/mL)
binding result (Peptide_071): no binding (tested: 5 ug/mL)
binding result (Peptide_032): no binding (tested: 5 ug/mL)
binding result (Peptide_038): binds
binding result (Peptide_063): no binding (tested: 5 ug/mL)
binding result (Peptide_027): no binding (tested: 5 ug/mL)
binding result (Peptide_080): no binding (tested: 5 ug/mL)
binding result (Peptide_074): no binding (tested: 5 ug/mL)
binding result (Peptide_003): no binding (tested: 5 ug/mL)
binding result (Peptide_087): no binding (tested: 5 ug/mL)
binding result (Peptide_009): no binding (tested: 5 ug/mL)
binding result (Peptide_030): no binding (tested: 5 ug/mL)
binding result (Peptide_100): no binding (tested: 5 ug/mL)
binding result (Peptide_039): binds
binding result (Peptide_081): no binding (tested: 5 ug/mL)
binding result (Peptide_082): no binding (tested: 5 ug/mL)
binding result (Peptide_065): no binding (tested: 5 ug/mL)
binding result (Peptide_004 [1]): no binding (tested: 5 ug/mL)
binding result (Peptide_007): no binding (tested: 5 ug/mL)
binding result (Peptide_043): no binding (tested: 5 ug/mL)
binding result (Peptide_036): no binding (tested: 5 ug/mL)
signal (blank-control = 1) (Peptide_086): 1.14
signal (blank-control = 1) (Peptide_095): 1.66
signal (blank-control = 1) (Peptide_094): 1.49
signal (blank-control = 1) (Peptide_025): 2.39
signal (blank-control = 1) (Peptide_012): 1.15
signal (blank-control = 1) (Peptide_014): 1.49
B1: monoclonal antibody B264 (antibody, mouse IgG1, kappa, V domains shown)
VH: QVQLQQSGAELARPGASVKMSCKASGYTFTSYTMHWVKQRPGQGLEWIGYINPTSDYTNYNQKFKDKATLTADKSSSTAYMQLSSLTSEDSAVYFCASEGGFLYYFDYWGQGTTLTVSS
VL: DVLMTQTPLSLPVSLGDQASISCRSSQSIVHSNGNTYLEWYLQKPGQSPKLLIYKVSNRFSGVPDRFSGSGSGTDFTLKISRVEAEDLGVYYCFQGSHVPYTFGGGTKLEIKR
notes: also called AB264; B264 (Trx1-mIgG1)

signal (blank-control = 1) (Peptide_004 [2]): 1.14
B2: monoclonal antibody B266-1 (antibody, human IgG1)
light: QIVLTQSPAIMSASPGEKVTMTCSASSRISYMYWYQQKPGTSPKRWIYDTSKLASGVPARFSGSGSGTSYSLTISTMEAEDAATYYCHQRSSYPTFGAGTKLELKSVAAPSVFIFPPSDEQLKSGTASVVCLLNNFYPREAKVQWKVDNALQSGNSQESVTEQDSKDSTYSLSSTLTLSKADYEKHKVYACEVTHQGLSSPVTKSFNRGEC
heavy: not shown
notes: B266 with the Fc part changed to human IgG1; also called B266-1 (Trx1-hIgG1); B266-1 (hTrx1-hIgG1)
